Each block holds one binder with its values, some of them ahead of it.
Columns and labels:
[1] = target: mFc-NKG2A-CD94重组蛋白 (human) (UniProt P26715); test: BLI (Octet QKe), antibody captured on AHC probe, mFc-NKG2A-CD94 as analyte, 1:1 fit
[2] = target: T1, 人NKG2A/CD94 (Flp-in CHO稳定表达细胞株表面) (human, UniProt P26715 1-233; Q13241 1-179); test: flow cytometry, Fab titrated on CHO cells expressing human NKG2A/CD94; column head KD[nM], title and text call it EC50
T1 construct: whole, on cells; also called 细胞表面人NKG2A/CD94; huNKGA/huCD94

PD-L1-ECD-mFc = PD-L1-ECD-mFc (UniProt Q9NZQ7); test: competition ELISA: PD-1-hFc coated, 3 nM PD-L1-ECD-mFc with titrated antibody, detection with HRP anti-mouse Fc
UniProt Q9NZQ7, sequence (Q9NZQ7 19-239): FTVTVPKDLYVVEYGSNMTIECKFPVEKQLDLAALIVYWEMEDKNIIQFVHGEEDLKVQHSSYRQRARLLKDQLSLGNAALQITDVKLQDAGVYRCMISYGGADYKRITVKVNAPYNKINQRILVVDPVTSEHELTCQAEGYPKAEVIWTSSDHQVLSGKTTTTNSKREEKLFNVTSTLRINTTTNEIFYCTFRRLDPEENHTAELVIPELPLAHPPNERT

T1 sequence (P26715 whole entry, chain 1 of 2): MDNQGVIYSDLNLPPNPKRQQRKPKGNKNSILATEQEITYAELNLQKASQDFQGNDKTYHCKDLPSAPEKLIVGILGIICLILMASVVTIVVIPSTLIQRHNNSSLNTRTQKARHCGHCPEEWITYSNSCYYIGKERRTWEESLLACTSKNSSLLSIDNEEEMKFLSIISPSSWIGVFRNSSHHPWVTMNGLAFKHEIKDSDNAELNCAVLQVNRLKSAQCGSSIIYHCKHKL
T1 sequence (Q13241 whole entry, chain 2 of 2): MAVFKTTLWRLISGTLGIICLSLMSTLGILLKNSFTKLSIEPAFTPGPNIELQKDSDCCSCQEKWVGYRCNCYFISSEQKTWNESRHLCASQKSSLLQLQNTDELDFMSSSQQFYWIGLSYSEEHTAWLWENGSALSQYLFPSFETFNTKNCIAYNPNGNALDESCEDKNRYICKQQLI

B1: hum270重组抗体 (antibody, V domains shown)
VH: EVQLVQSGAEVKKPGASVKVSCKASGYTFTSYWMNWVRQAPGQGLEWMGRIDPYDSETHYAQKLQGRVTMTTDTSTSTAYMELRSLRSDDTAVYYCARGGYDFDVGTLYWFFDVWGQGTTVTVSS
VL: DIQMTQSPSSLSASVGDRVTITCRASENIYSYLAWYQQKPGKAPKLLIYNAKTLAEGVPSRFSGSGSGTDFTLTISSLQPEDFATYYCQHHYGTPRTFGGGTKVEIK
Kd [1]: 0.408 nM
koff [1]: 0.000196 s⁻¹
kon [1]: 481000 M⁻¹ s⁻¹

B2: AM00 Fab (Fab, V domains shown)
VH: EVQLVQSGAEVKKPGASVKVSCKASGYTFTSYWMNWVRQAPGQGLEWMGRIDPYDSETHYAQKLQGRVTMTTDTSTSTAYMELRSLRSDDTAVYYCARGGYDFDVGTLYWFFDVWGQGTTVTVSS
VL: DIQMTQSPSSLSASVGDRVTITCRASENIYSYLAWYQQKPGKAPKLLIYNAKTLAEGVPSRFSGSGSGTDFTLTISSLQPEDFATYYCQHHYGTPRTFGGGTKVEIK
notes: also called 亲本抗体AM00; 模板抗体Fab
Kd [2]: 189 nM

Continued, values first:

Kd [2]: 1.43 nM
B3: AM10 Fab (Fab, V domains shown)
VH: EVQLVQSGAEVKKPGASVKVSCKASSYDFSWYWINWVRQAPGQGLEWMGRIDPYDSETHYAQKLQGRVTMTTDTSTSTAYMELRSLRSDDTAVYYCARGGYDFDVGTLYWFFDVWGQGTTVTVSS
VL: DIQMTQSPSSLSASVGDRVTITCRASENIYSYLAWYQQKPGKAPKLLIYNAKTLAEGVPSRFSGSGSGTDFTLTISSLQPEDFATYYCQHHYGTPRTFGGGTKVEIK

IC50 (PD-L1-ECD-mFc): 2.86 nM
B4: 抗NKG2A和抗PD-L1双特异性抗体hum270-F2 (bispecific antibody, part only; not given: Anti-PD-L1 nanobody F2, linker, constant regions, IgG4, not shown: a dimerising Fc or GST)
heavy, part: EVQLVQSGAEVKKPGASVKVSCKASGYTFTSYWMNWVRQAPGQGLEWMGRIDPYDSETHYAQKLQGRVTMTTDTSTSTAYMELRSLRSDDTAVYYCARGGYDFDVGTLYWFFDVWGQGTTVTVSS
light, part: DIQMTQSPSSLSASVGDRVTITCRASENIYSYLAWYQQKPGKAPKLLIYNAKTLAEGVPSRFSGSGSGTDFTLTISSLQPEDFATYYCQHHYGTPRTFGGGTKVEIK

Source: patent CN113583127A (MABWELL SHANGHAI BIOTECHNOLOGY CO LTD, dated 2021)
